Assay results published in patent publication US20240241109A1 (NATIONAL JEWISH HEALTH, published 2024).
Read-outs that look alike come from different tables or passages of the source.

Columns and labels:
[1] = target: T1, wildtype SARS-COV-2 spike receptor binding domain (RBD) (SARS-COV-2 (wildtype), UniProt P0DTC2 320-541); assay: SPR (Biacore)
[2] = target: T1, wildtype SARS-COV-2 spike receptor …

B1: Etesevimab (LY-CoV016) (antibody, V domains shown)
VH: EVQLVESGGGLVQPGGSLRLSCAASGFTVSSNYMSWVRQAPGKGLEWVSVIYSGGSTFYADSVKGRFTISRDNSMNTLFLQMNSLRAEDTAVYYCARVLPMYGDYLDYWGQGTLVTVSS
VL: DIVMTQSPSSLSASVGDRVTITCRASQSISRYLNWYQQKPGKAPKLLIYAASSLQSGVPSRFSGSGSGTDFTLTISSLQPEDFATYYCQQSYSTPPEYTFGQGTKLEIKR
Kd [1]: 6.8 nM
Kd [2]: 6.83 nM
koff [2]: 0.00988 s⁻¹
kon [2]: 1.46e+06 M⁻¹ s⁻¹
